From publication PMC3231237 come the findings set out here.

For assay [1], the target named is Case12. The assay can be described thus: SEC-MALS; sensor at 4 mg/mL, Ca2+-saturated (5 mM CaCl2 added, 1 h); Superdex 200, 50 mM Tris-HCl, 300 mM NaCl, pH 7.4, 1 mM CaCl2; monomer to dimer. For orientation: In gel filtration, larger molecules generally elute earlier.
The target in assay [2] is Case12. The assay is described as follows: SEC-MALS; sensor at 16 mg/mL, Ca2+-saturated (5 mM CaCl2 added, 1 h); Superdex 200, 50 mM Tris-HCl, 300 mM NaCl, pH 7.4, 1 mM CaCl2; monomer to dimer.
The target of assay [3] is Case16. The assay can be described thus: SEC-MALS; sensor at 4 mg/mL, Ca2+-saturated (5 mM CaCl2 added, 1 h); Superdex 200, 50 mM Tris-HCl, 300 mM NaCl, pH 7.4, 1 mM CaCl2; monomer to dimer.
The target of assay [4] is Case16. The assay is described as follows: SEC-MALS; sensor at 16 mg/mL, Ca2+-saturated (5 mM CaCl2 added, 1 h); Superdex 200, 50 mM Tris-HCl, 300 mM NaCl, pH 7.4, 1 mM CaCl2; monomer to dimer.

For the substance Case12, the percent dimer in the assay with Case12 [1] worked out at 3%. For the same substance, in the assay with Case12 [2], the percent dimer was 22% and the stoichiometry N came out at 2.

In the assay with Case16 [3], Case16 registered a percent dimer of 2%. In the assay with Case16 [4], the percent dimer stood at 26% and the stoichiometry N turned out to be 2.

A word on the stoichiometry N: it is the number of molecules, sites or subunits per partner or assembly.
